Experimental data published in US20150344570A1 (published 2015).

Experiments:
[1] = target: FcγRIIIa extracellular domain with C-terminal His tag (human, UniProt P08637 17-208); experiment: SPR (Biacore), relative binding activity; GpH7-A5/GpH7-B3/GpL16-k0 = 100
Target sequence in this assay (P08637 17-208): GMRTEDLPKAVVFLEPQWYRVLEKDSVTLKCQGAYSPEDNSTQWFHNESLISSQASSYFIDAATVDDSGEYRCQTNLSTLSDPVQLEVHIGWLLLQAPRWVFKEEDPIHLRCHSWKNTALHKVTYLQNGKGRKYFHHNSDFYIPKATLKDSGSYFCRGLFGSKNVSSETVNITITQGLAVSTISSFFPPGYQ

[2] = target: T1, FcγRIIIa extracellular domain with C-terminal His tag (human, UniProt P08637 17-208); experiment: SPR (Biacore), ratio of KD for FcγRIIIa against GpH7-A5/GpH7-B3/GpL16-k0
T1 construct: extracellular domain; also called FcgRIIIa; 3a; not shown: His tag attached to the C terminus
Text: Then, the present inventors introduced I332E into only one H chain, and assessed whether the Tm is elevated as compared to when I332E is introduced into both H chains. Expression vectors inserted with GpH7-A44 (SEQ ID NO: 49) and GpH7-B80 (SEQ ID NO: 50) resulting from the introduction of I332E into GpH7-A5 and GpH7-B3, respectively, were constructed. They were combined with GpH7-B3, GpH7-A5, and GpL16-k0 to express and prepare the following antibodies according to the method described in Reference Example 1: the heterodimerized antibodies GpH7-A5/GpH7-B80/GpL16-k0 and GpH7-A44/GpH7-B3/GpL16-k0 in which only one of the H chains was introduced with I332E, and the homodimerized antibody GpH7-A44/GpH7-B80/GpL16-k0 in which both of the H chains were introduced with I332E. […] Each antibody was assessed for the FcγRIIIa-binding activity according to the method described in Reference Example 2. In addition, the antibodies were compared for the Tm of CH2 domain by thermal shift assay according to the method described in Reference Example 5 (Tables 28 and 29).
Analysis of interaction between objective antibody and the FcγR was carried out using Biacore T100 (GE Healthcare). HBS-EP+ (GE Healthcare) was used as the running buffer, and the measurement temperature was set to 25° C. Chips produced by immobilizing the antigen peptide by the amine coupling method to a Series S Sencor Chip CM5 (GE Healthcare), or alternatively, chips produced by allowing preliminarily biotinylated antigen peptides to interact with and immobilize onto a Series S Sensor Chip SA (certified) (GE Healthcare) were used. Antibodies of interest were captured onto an antigen peptide-immobilized chip, and allowed to interact to each FcγR diluted with running buffer. To regenerate and repeatedly use the chip, the antibodies captured on the chip were washed off by reacting 10 mM glycine-HCl, pH 1.5.
The FcγR-binding activity of each antibody was assessed primarily using as an indicator the FcγR-binding activity and dissociation constant for FcγR.
T1 sequence (P08637 17-208): as above

Row | Binder | FcγRIIIa BINDING ACTIVITY [1] | KD ratio [2]
1 | GpH7-TA4/GpH7-B3-15-02A/GpL16-k0 (antibody, human IgG1, kappa, H1 L234Y and G236W; H2 S298A) heavy 1: QVQLVQSGAEVKKPGASVTVSCKASGYTFTDYEMHWIRQPPGEGLEWIGAIDPKTGDTAYSESFQDRVTLTADKSTSTAYMELSSLTSEDTAVYYCTRFYSYTYWGQGTLVTVSSASTKGPSVFPLAPSSKSTSGGTAALGCLVKDYFPEPVTVSWNSGALTSGVHTFPAVLQSSGLYSLSSVVTVPSSSLGTQTYICNVNHKPSNTKVDKKVEPKSCDKTHTCPPCPAPEYLWGPSVFLFPPKPKDTLMISRTPEVTCVVVDVSHEDPEVKFNWYVDGVEVHNAKTKPREEQYNSTYRVVSVLTVLHQDWLNGKEYKCKVSNKALPAPIEKTISKAKGQPREPQVYTLPPSRKELTKNQVSLTCLVKGFYPSDIAVEWESNGQPENNYKTTPPVLDSDGSFFLYSKLTVDKSRWQQGNVFSCSVMHEALHNRYTQKSLSLSP heavy 2: not shown light: DIVMTQSPLSLPVTPGEPASISCQASESLVHSNRNTYLHWYLQKPGQSPQLLIYKVSNRFSGVPDRFSGSGSGTDFTLKISRVEAEDVGVYYCSQNTHVPPTFGQGTKVEIERTVAAPSVFIFPPSDEQLKSGTASVVCLLNNFYPREAKVQWKVDNALQSGNSQESVTEQDSKDSTYSLSSTLTLSKADYEKHKVYACEVTHQGLSSPVTKSFNRGEC | 151% | –
2 | GpH7-TA5/GpH7-B3-03-20W/GpL16-k0 (antibody, human IgG1, kappa, H1 L234Y and S298A; H2 G236W) heavy 1: QVQLVQSGAEVKKPGASVTVSCKASGYTFTDYEMHWIRQPPGEGLEWIGAIDPKTGDTAYSESFQDRVTLTADKSTSTAYMELSSLTSEDTAVYYCTRFYSYTYWGQGTLVTVSSASTKGPSVFPLAPSSKSTSGGTAALGCLVKDYFPEPVTVSWNSGALTSGVHTFPAVLQSSGLYSLSSVVTVPSSSLGTQTYICNVNHKPSNTKVDKKVEPKSCDKTHTCPPCPAPEYLGGPSVFLFPPKPKDTLMISRTPEVTCVVVDVSHEDPEVKFNWYVDGVEVHNAKTKPREEQYNATYRVVSVLTVLHQDWLNGKEYKCKVSNKALPAPIEKTISKAKGQPREPQVYTLPPSRKELTKNQVSLTCLVKGFYPSDIAVEWESNGQPENNYKTTPPVLDSDGSFFLYSKLTVDKSRWQQGNVFSCSVMHEALHNRYTQKSLSLSP heavy 2: not shown light: DIVMTQSPLSLPVTPGEPASISCQASESLVHSNRNTYLHWYLQKPGQSPQLLIYKVSNRFSGVPDRFSGSGSGTDFTLKISRVEAEDVGVYYCSQNTHVPPTFGQGTKVEIERTVAAPSVFIFPPSDEQLKSGTASVVCLLNNFYPREAKVQWKVDNALQSGNSQESVTEQDSKDSTYSLSSTLTLSKADYEKHKVYACEVTHQGLSSPVTKSFNRGEC | 97% | –
3 | GpH7-TA6/GpH7-B3-01-15Y/GpL16-k0 (antibody, human IgG1, kappa, H1 G236W and S298A; H2 L234Y) heavy 1: QVQLVQSGAEVKKPGASVTVSCKASGYTFTDYEMHWIRQPPGEGLEWIGAIDPKTGDTAYSESFQDRVTLTADKSTSTAYMELSSLTSEDTAVYYCTRFYSYTYWGQGTLVTVSSASTKGPSVFPLAPSSKSTSGGTAALGCLVKDYFPEPVTVSWNSGALTSGVHTFPAVLQSSGLYSLSSVVTVPSSSLGTQTYICNVNHKPSNTKVDKKVEPKSCDKTHTCPPCPAPELLWGPSVFLFPPKPKDTLMISRTPEVTCVVVDVSHEDPEVKFNWYVDGVEVHNAKTKPREEQYNATYRVVSVLTVLHQDWLNGKEYKCKVSNKALPAPIEKTISKAKGQPREPQVYTLPPSRKELTKNQVSLTCLVKGFYPSDIAVEWESNGQPENNYKTTPPVLDSDGSFFLYSKLTVDKSRWQQGNVFSCSVMHEALHNRYTQKSLSLSP heavy 2: not shown light: DIVMTQSPLSLPVTPGEPASISCQASESLVHSNRNTYLHWYLQKPGQSPQLLIYKVSNRFSGVPDRFSGSGSGTDFTLKISRVEAEDVGVYYCSQNTHVPPTFGQGTKVEIERTVAAPSVFIFPPSDEQLKSGTASVVCLLNNFYPREAKVQWKVDNALQSGNSQESVTEQDSKDSTYSLSSTLTLSKADYEKHKVYACEVTHQGLSSPVTKSFNRGEC | 103% | –
4 | GpH7-A5/GpH7-B3/GpL16-k0 (antibody, human IgG1, kappa, also called HeCon Ab; control heterodimerized antibody) heavy 1: not shown heavy 2: not shown light: DIVMTQSPLSLPVTPGEPASISCQASESLVHSNRNTYLHWYLQKPGQSPQLLIYKVSNRFSGVPDRFSGSGSGTDFTLKISRVEAEDVGVYYCSQNTHVPPTFGQGTKVEIERTVAAPSVFIFPPSDEQLKSGTASVVCLLNNFYPREAKVQWKVDNALQSGNSQESVTEQDSKDSTYSLSSTLTLSKADYEKHKVYACEVTHQGLSSPVTKSFNRGEC | – | 1 fold (KD of GpH7-A5/GpH7-B3/GpL16-k0 divided by KD of the antibody)
5 | GpH7-A5/GpH7-B80/GpL16-k0 (antibody, human IgG1, kappa, Heterodimerized antibody with I332E in one H chain only) heavy 1: not shown heavy 2: not shown light: DIVMTQSPLSLPVTPGEPASISCQASESLVHSNRNTYLHWYLQKPGQSPQLLIYKVSNRFSGVPDRFSGSGSGTDFTLKISRVEAEDVGVYYCSQNTHVPPTFGQGTKVEIERTVAAPSVFIFPPSDEQLKSGTASVVCLLNNFYPREAKVQWKVDNALQSGNSQESVTEQDSKDSTYSLSSTLTLSKADYEKHKVYACEVTHQGLSSPVTKSFNRGEC | – | 3.4 fold (KD of GpH7-A5/GpH7-B3/GpL16-k0 divided by KD of the antibody)
6 | GpH7-A44/GpH7-B80/GpL16-k0 (antibody, human IgG1, kappa) heavy 1: QVQLVQSGAEVKKPGASVTVSCKASGYTFTDYEMHWIRQPPGEGLEWIGAIDPKTGDTAYSESFQDRVTLTADKSTSTAYMELSSLTSEDTAVYYCTRFYSYTYWGQGTLVTVSSASTKGPSVFPLAPSSKSTSGGTAALGCLVKDYFPEPVTVSWNSGALTSGVHTFPAVLQSSGLYSLSSVVTVPSSSLGTQTYICNVNHKPSNTKVDKKVEPKSCDKTHTCPPCPAPELLGGPSVFLFPPKPKDTLMISRTPEVTCVVVDVSHEDPEVKFNWYVDGVEVHNAKTKPREEQYNSTYRVVSVLTVLHQDWLNGKEYKCKVSNKALPAPEEKTISKAKGQPREPQVYTLPPSRKELTKNQVSLTCLVKGFYPSDIAVEWESNGQPENNYKTTPPVLDSDGSFFLYSKLTVDKSRWQQGNVFSCSVMHEALHNRYTQKSLSLSP heavy 2: not shown light: DIVMTQSPLSLPVTPGEPASISCQASESLVHSNRNTYLHWYLQKPGQSPQLLIYKVSNRFSGVPDRFSGSGSGTDFTLKISRVEAEDVGVYYCSQNTHVPPTFGQGTKVEIERTVAAPSVFIFPPSDEQLKSGTASVVCLLNNFYPREAKVQWKVDNALQSGNSQESVTEQDSKDSTYSLSSTLTLSKADYEKHKVYACEVTHQGLSSPVTKSFNRGEC | – | 7.1 fold (KD of GpH7-A5/GpH7-B3/GpL16-k0 divided by KD of the antibody)
7 | GpH7-A44/GpH7-B3/GpL16-k0 (antibody, human IgG1, kappa, Heterodimerized antibody with I332E in one H chain only) heavy 1: QVQLVQSGAEVKKPGASVTVSCKASGYTFTDYEMHWIRQPPGEGLEWIGAIDPKTGDTAYSESFQDRVTLTADKSTSTAYMELSSLTSEDTAVYYCTRFYSYTYWGQGTLVTVSSASTKGPSVFPLAPSSKSTSGGTAALGCLVKDYFPEPVTVSWNSGALTSGVHTFPAVLQSSGLYSLSSVVTVPSSSLGTQTYICNVNHKPSNTKVDKKVEPKSCDKTHTCPPCPAPELLGGPSVFLFPPKPKDTLMISRTPEVTCVVVDVSHEDPEVKFNWYVDGVEVHNAKTKPREEQYNSTYRVVSVLTVLHQDWLNGKEYKCKVSNKALPAPEEKTISKAKGQPREPQVYTLPPSRKELTKNQVSLTCLVKGFYPSDIAVEWESNGQPENNYKTTPPVLDSDGSFFLYSKLTVDKSRWQQGNVFSCSVMHEALHNRYTQKSLSLSP heavy 2: not shown light: DIVMTQSPLSLPVTPGEPASISCQASESLVHSNRNTYLHWYLQKPGQSPQLLIYKVSNRFSGVPDRFSGSGSGTDFTLKISRVEAEDVGVYYCSQNTHVPPTFGQGTKVEIERTVAAPSVFIFPPSDEQLKSGTASVVCLLNNFYPREAKVQWKVDNALQSGNSQESVTEQDSKDSTYSLSSTLTLSKADYEKHKVYACEVTHQGLSSPVTKSFNRGEC | – | 4.4 fold (KD of GpH7-A5/GpH7-B3/GpL16-k0 divided by KD of the antibody)
